The values below come from paper PMC4837482, “The complex binding mode of the peptide hormone H2 relaxin to its receptor RXFP1” (Nature Communications, 2016).

Positions count from the first letter of the chain named.

Holding throughout (test): cAMP activity assay (pCRE β-galactosidase reporter), transfected HEK293T cells
Common to all, as to assay type: cell-based

One assay deals with T1, RXFP1 A55S (Homo sapiens, UniProt Q9HBX9, A77S).
T1 construct: cells expressing full-length RXFP1 and mutants; expressed in transfected cells; host or cells: HEK293T
T1 sequence (Q9HBX9 23-757 A77S limits assumed): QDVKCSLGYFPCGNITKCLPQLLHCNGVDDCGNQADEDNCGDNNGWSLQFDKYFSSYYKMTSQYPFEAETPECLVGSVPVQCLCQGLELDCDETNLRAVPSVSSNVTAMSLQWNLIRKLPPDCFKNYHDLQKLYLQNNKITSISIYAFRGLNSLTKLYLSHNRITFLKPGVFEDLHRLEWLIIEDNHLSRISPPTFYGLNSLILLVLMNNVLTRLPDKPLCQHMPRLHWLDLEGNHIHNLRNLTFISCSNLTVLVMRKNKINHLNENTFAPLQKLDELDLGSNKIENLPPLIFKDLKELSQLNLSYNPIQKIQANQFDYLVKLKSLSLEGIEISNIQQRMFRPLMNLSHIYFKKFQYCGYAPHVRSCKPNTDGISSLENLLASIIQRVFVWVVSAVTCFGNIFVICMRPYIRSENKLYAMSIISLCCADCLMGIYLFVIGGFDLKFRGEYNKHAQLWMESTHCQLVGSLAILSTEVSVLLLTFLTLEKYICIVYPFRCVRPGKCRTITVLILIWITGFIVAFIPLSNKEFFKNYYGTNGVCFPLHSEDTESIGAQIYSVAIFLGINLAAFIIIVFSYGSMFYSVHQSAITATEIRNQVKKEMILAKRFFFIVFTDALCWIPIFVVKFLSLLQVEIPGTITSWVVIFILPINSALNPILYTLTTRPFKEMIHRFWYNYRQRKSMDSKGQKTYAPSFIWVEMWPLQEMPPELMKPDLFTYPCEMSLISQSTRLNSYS
Conditions: construct A55S, ±s.e.m. The gist of the method: (§1)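 Absorbance at 570 nm from β-galactosidase cleavage of chlorophenol red-β-D-galactopyranoside, expressed as percentage of the maximal 5 μM Forskolin response (mean ± s.e.m., ≥3 experiments in triplicate). Stimulant was H2 relaxin in minimal media containing 1% DMSO.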

A further assay has as its target T2, RXFP1 G41D42-AA (Homo sapiens, UniProt Q9HBX9, D64A/G63A).
T2 construct: transiently transfected human embryonic kidney (HEK) 293T cells expressing full-length RXFP1 and mutants; expressed in transfected cells; host or cells: HEK293T
T2 sequence (Q9HBX9 23-757 G63A/D64A limits assumed): T1 sequence (Q9HBX9 23-757 A77S limits assumed) with G41A, D42A, S55A
The gist of the method: as §1

Another assay addresses T3, RXFP1 N43N44-AA (Homo sapiens, UniProt Q9HBX9, N65A/N66A).
T3 construct: transiently transfected human embryonic kidney (HEK) 293T cells expressing full-length RXFP1 and mutants; expressed in transfected cells; host or cells: HEK293T
T3 sequence (Q9HBX9 23-757 N65A/N66A limits assumed): T1 sequence (Q9HBX9 23-757 A77S limits assumed) with N43A, N44A, S55A
The gist of the method:
as §1

With “H2 relaxin: two-chain 6-kDa peptide hormone structurally related to insulin; recombinant human gene-2 H2 relaxin provided by Corthera”, the “H2 relaxin pEC50” value in the assay with RXFP1 A55S (cAMP reporter) is listed as 11.39±0.13 (5); with RXFP1 N43N44-AA (construct N43N44-AA, cAMP reporter, ±s.e.m.), 8.29±0.63 (3). The “H2 relaxin Emax” value with RXFP1 A55S (percentage of maximum response to 5 μM Forskolin) is reported as 154.43±39.77 (5) %; in the assay with RXFP1 G41D42-AA (construct G41D42-AA, percentage of maximum response to 5 μM Forskolin, ±s.e.m.), 106.8±46.67 (3) %; with RXFP1 N43N44-AA (construct N43N44-AA, percentage of maximum response to 5 μM Forskolin, ±s.e.m.) it was 118.90±12.81 (3) %. Moreover, the “loss of H2 relaxin-stimulated cAMP activity” value with RXFP1 G41D42-AA (G41A/D42A RXFP1 versus wild-type RXFP1) was 5,000 fold; with RXFP1 N43N44-AA (N43A/N44A RXFP1 versus wild-type RXFP1) it was 500 fold.
